In patent US10286050B2 (The United States of America, as represented by the …, priority 2013, dated 2019):
Entries after “also recorded” stand apart in the source; their conditions may differ.

Columns and labels:
HLA-A2 = HLA-A2 (Homo sapiens, UniProt P04439, D140Y/D185E/D98H/E176V/E277Q/G131W/G231S/I119V/I121R/I166T/I218V/L300P/L318F/N151K/N90K/P208A/P217A/Q86G/Q94H/R138H/R169H/T345S); details: cited from earlier work
human T cells = details: cited from earlier work; for recognition of peptide-pulsed targets by peptide-specific human T cells: human T cells specific for the named peptide
[1] = test system: A2K^b transgenic mice (expressing human HLA-A*0201); details: cited from earlier work
[2] = Storage stability of vialed product; type: physicochemical
Description: Stability and Storage: KLH-HMW is stable for at least 12 months when stored at 2 to 8° C.
Stability and Storage: The finished injectable dosage forms are stored in the freezer (−70′C) for long-term storage. Intact vials are stable for at least 6 months when stored at controlled room temperature (15° C.-30° C.) or in the refrigerator (2° C.-8° C.), and for at least 36 months when stored in the freezer (−10° C. to −25° C. and −70° C.). The peptide vial contains no preservatives; once the peptide vial is entered, unused peptide solution is discarded after 3 hours.
Stability and Storage: The finished injectable dosage forms are stored in the freezer (−70° C.) for long-term storage. Intact vials are stable for at least 6 months when stored at controlled room temperature (15° C.-30° C.), at least 9 months when stored in the refrigerator (2° C.-8° C.), and for at least 36 months when stored in the freezer (−10° C. to −25° C. and −70° C.). The peptide vial contains no preservatives; once the peptide vial is entered, unused peptide solution is discarded after 3 hours.

[3] = controlled room temperature (15° C.-30° C.)
[4] = freezer (−10° C. to −25° C. and −70° C.)

Sequence | change of binding affinity to HLA-A2 by epitope enhancement (HLA-A2; amino acid substitution versus wild-type peptide) | recognition of peptide-pulsed targets by peptide-specific human T cells (human T cells) | immunogenicity in human T cells (human T cells; human cells) | percentage of TARP-specific CD8+ T cells ([1]; A2K^b transgenic mice, versus wild type sequence) | stability of intact vials [2, 3] | stability of intact vials [2, 4] | stability of intact vials ([2]; refrigerator (2° C.-8° C.)) | binding affinity relative to TARP 29-37 (HLA-A2; HLA-A2 epitopes, fold greater than TARP 29-37) | level of CD8+ T cell response ([1]; A2K^b transgenic mice) | immunogenicity in A2K^b transgenic mice ([1]; dendritic cells pulsed with the peptides or DNA encoding the peptides)
FLRNFSLMV [TARP 29-37-9V] | lower binding affinity to HLA-A2 than TARP29-37-3A; also recorded: did enhance the binding affinity compared with the wild-type peptide | recognized targets pulsed with all three peptides equally well | immunogenic | higher percentage of TARP-specific CD8^+ T cells than the wild type sequence | at least 6 months | at least 36 months | at least 9 months | – | – | –
FVFLRNFSL [TARP 27-35] | – | recognized targets pulsed with that sequence | – | – | at least 6 months | at least 36 months | at least 6 months | 10 times | higher level of CD8+ T cell response than TARP29-37 | immunogenic
